Test results taken from patent US20200040057A1 (IMMATICS BIOTECHNOLOGIES, published 2020).

Biological target: HLA-B*07 (human)
Experiment: UV peptide exchange ELISA; ++++ = yield >75%

Binder: SPITLQAL
- peptide exchange yield: > 75%

Binder: RPPPPCIAL
- peptide exchange yield: > 75%

Binder: RPTHPLRSF
- peptide exchange yield: > 75%

Binder: RPYQDAPVA
- peptide exchange yield: > 75%

Binder: MPYNSAHHCVV
- peptide exchange yield: > 75%

Binder: SPVPSHWMVAL
- peptide exchange yield: > 75%

Binder: AVRLPTPNL
- peptide exchange yield: > 75%

Binder: APARPAAAF
- peptide exchange yield: > 75%

Binder: SPSTSRTPLLSSL
- peptide exchange yield: > 75%

Binder: HPRWIEPTVM
- peptide exchange yield: > 75%

Binder: FPAPPAHWF
- peptide exchange yield: > 75%

Binder: LPRAGGAF
- peptide exchange yield: > 75%

Binder: SPLLMQRTL
- peptide exchange yield: > 75%

Binder: VPMPGVQAV
- peptide exchange yield: > 75%

Binder: APRLALDPDAL
- peptide exchange yield: > 75%

Binder: VPYAAQAAL
- peptide exchange yield: > 75%

Binder: MPVDSFNSM
- peptide exchange yield: > 75%

Binder: VPSHWMVAL
- peptide exchange yield: > 75%

Binder: SPAAPLSPASSL
- peptide exchange yield: > 75%

Binder: KPGFNISIL
- peptide exchange yield: > 75%

Binder: DVIDDIISL
- peptide exchange yield: > 75%

Binder: TPISNTGVL
- peptide exchange yield: > 75%

Binder: KPYEGRVEI
- peptide exchange yield: > 75%

Binder: MPVDSFNSML
- peptide exchange yield: > 75%

Binder: SPFSGGPVSF
- peptide exchange yield: > 75%

Binder: VPLSSYVSI
- peptide exchange yield: > 75%

Binder: MVLGIGPVL
- peptide exchange yield: > 75%

Binder: RPILKEQSSSSF
- peptide exchange yield: > 75%

Binder: LPRAGGAFLM
- peptide exchange yield: > 75%

Binder: LPRAFLQSL
- peptide exchange yield: > 75%

Binder: RPDVVRTLL
- peptide exchange yield: > 75%

Binder: RPLDTFRVL
- peptide exchange yield: > 75%

Binder: RPVWDVRSA
- peptide exchange yield: > 75%

Binder: RPDSRLLEL
- peptide exchange yield: > 75%

Binder: RVIQGTTTL
- peptide exchange yield: > 75%

Binder: VPKPAIPSSSVL
- peptide exchange yield: > 75%

Binder: SPMEAELVRRIL
- peptide exchange yield: > 75%

Binder: KPKAVKPKAA
- peptide exchange yield: > 75%

Binder: GPVPSPLAL
- peptide exchange yield: > 75%

Binder: QPQCSTHIL
- peptide exchange yield: > 75%

Binder: NPRSPPATM
- peptide exchange yield: > 75%

Binder: LVQSSRSEV
- peptide exchange yield: > 75%

Binder: APLPRPGAV
- peptide exchange yield: > 75%

Binder: APVVFPAL
- peptide exchange yield: > 75%

Binder: SPGWAQTQL
- peptide exchange yield: > 75%

Binder: SPIPRPLFL
- peptide exchange yield: > 75%

Binder: RPSAPRGPP
- peptide exchange yield: > 75%

Binder: LPNTGRIGQLL
- peptide exchange yield: > 75%

Binder: RPQPGWRESL
- peptide exchange yield: > 75%

Binder: SPIIHSILL
- peptide exchange yield: > 75%

Binder: LPIARVLTV
- peptide exchange yield: > 75%

Binder: LPALKEEAF
- peptide exchange yield: > 75%

Binder: APMHIDRNIL
- peptide exchange yield: > 75%

Binder: FPYDKPLIM
- peptide exchange yield: > 75%
